Data: the supplement of paper PMC12042874
± gives the uncertainty stated by the source.

Assay: amyloid nucleation score (Sup35N fusion, yeast selection) (log enrichment); library NNK3; higher = more nucleation; inactive = no reads after selection
Summary of the method: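 Peptides of 20 random codons, each fused to Sup35N, were expressed in psi-negative yeast. Cells were induced with 100 μM copper sulfate for 24 hours and grown 7 days at 30°C on medium lacking adenine and uracil, and plasmid inserts before and after selection were Illumina-sequenced. Nucleation scores are DiMSum log enrichments of output over input reads, centred on the mode score of non-aggregating sequences, and sequences under 100 input reads were excluded.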

Substance	amyloid nucleation score
NHLVGLNMSISMCDSLNSVF	inactive
SIAIHSMLKYNVPLVSRHSG	inactive
VVRYPSMKE	inactive
AFGLTVFE	inactive
TTKQKV	inactive
INLTYRVTVRVQISAPGMCA	-0.206 ± 0.65
SYQVCSKQTPHFSLSFIMFV	-0.488 ± 0.96
VEELKYRHNALNFRKNVQSL	inactive
NITFISSWIMQEYTFVLCSF	1.96 ± 0.065
IVRYTHSSLVYFTDEMMVNR	1.19 ± 0.12
MCQNLRMYMIYHRQGKWMKS	inactive
IMVRGVRDS	inactive
RIQCIRLDHFSLSLFYFFTA	0.636 ± 0.21
QDYTWVFEVSWAPKGGNLNV	inactive
NTWILNC	inactive
MTYGLFVIYMRGGSNLMLHV	inactive
SGWKQSGS	inactive
DERLVYGEKSCRFSLSYANM	inactive
RPRLYFLTSNLKTQCAVHNA	inactive
NFVRGTGFVGRLESLNWKV	inactive
YVTGVLDC	inactive
NNSSSMSLINKSTCCLDWSS	2.02 ± 0.063
AEHHYAFAFTEF	inactive
TSSWYFILDVHCGSEGNSEA	0.438 ± 0.28

Substance	amyloid nucleation score
SAFGTQGYCKSSVFPEASPR	inactive
VASSKQYLGTVTYLDGVA	inactive
EWQSYYSKQRIGSGPFQLFC	0.179 ± 0.3
CIDSYLMYVFVAQQPGN	inactive
KGTSR	inactive
NVWDMEEERWNLKAILTMWA	inactive
NINIY	-0.302 ± 0.96
IHFNWLIYITNTYVRRIFRC	inactive
RMSVSSFRVVWSTIAYTKST	inactive
SRKVYEPKVPLAVSGCRMNV	inactive
IYTCSTRSSSFYRRMIRSFL	inactive
GTIHFHGGNHCSLGLL	inactive
GWSDRFSMLYSFLLLLWKSP	inactive
GREAGVIIWVRCLYFYVFER	inactive
YEWKTRGW	inactive
YVIGDVIIFPSSFMINCLYC	2.4 ± 0.081
DFRLFFCLYGVYNLRYCFGW	inactive
FRNRGLNSNMNYSSFNVQSM	-0.124 ± 0.52
GRANGFQQIDLCEYHREYLN	inactive
DIQTLPKLDLVFFVWAILEL	inactive
HVAKVGTFNWTHNGYDNCFV	inactive
TMAEGL	inactive
LSSWFHFLSNTATRQKVWRS	inactive
HQVGYGLHGPG	-0.539 ± 0.96

Substance	amyloid nucleation score
YFYFVTHRDELGMSGPVTWA	inactive
SSVENFLNVCNHLDES	0.389 ± 0.25
ARVRFSLKRSCMLVHA	inactive
GFTFNGF	inactive
WRMDSRYYCYYQFLSLSYQW	inactive
CANQGGCIICDATYQCVIIA	0.649 ± 0.14
ILSLSQMNT	inactive
LAPHLSTIMCIEHNS	inactive
SWMYEFGSGTVKGGGKSELD	inactive
CMRYVGSPDNRHWASGKGIP	inactive
RFIVANHLGGVYLQE	inactive
KWYRWCMYADDIESHLFGAL	inactive
RPRMPVRLWWYTKLGYFKDR	inactive
ELCVRQLCY	inactive
NEVETESCIELTFPMQYWQV	2.24 ± 0.093
PLNDNRRVPAISVFKECQTS	inactive
DLFKMRLGTERGY	inactive
SCYCN	inactive
NFLRCVHFLKFFMDFNGTSG	inactive
KGYCFAYRQNSVELIP	inactive
FVDGVSYGTGTSSYKRTELY	inactive
LQWVRLVSRVQSTDCNLGAG	inactive
YNGGIRVTLT	inactive
NYRWTWPMPTQEALTPNSDS	inactive

Substance	amyloid nucleation score
NCMFWGCVTLRADFVRTINR	1.5 ± 0.14
LGSDTPLKCVLSTMRMLRTG	inactive
AWGSVYVALVWRWNFRCVR	inactive
QDHDVSYSSCPGYSVMVMEG	-0.399 ± 0.8
RSVSDYSSNCRAHCLVDDDT	inactive
VFQRVNISVCINVVKFMSSM	1.65 ± 0.069
VVATILLVHPPVKHWSCDLM	-0.859 ± 0.73
LSFCVVSTGRCAAMEN	inactive
LVNELAQVVVCLGSRSTVLG	inactive
ICCTSS	inactive
SRNLPVLTYLFLVKKWEWYP	inactive
PTVQCC	inactive
GTGMCCLIVSLVFLPLCDIA	inactive
YLFWLYERRKGDYISPHVLR	inactive
FVVSLQYMCQSRYISPCTPI	inactive
SNSHVTKDLGVCRGLATCRG	inactive
RAITSVSYVWTGRCL	0.803 ± 0.14
LSFYTFGNNWTKRCNCPTAS	inactive
CNYCALLTCLRGMPN	1.16 ± 0.12
FLQAAYSGSRVAKCVSESSK	inactive
QNMCAARPS	inactive
CSIWLCNKNVQIAN	inactive
GWGVHWFYIMVINHLF	inactive
CPCFNLV	inactive

Substance	amyloid nucleation score
FIDNRGSDSSTICCYNYAAQ	0.407 ± 0.61
REASVECH	inactive
YASVRVQFCCIFKSADRASP	1.9 ± 0.088
LSSFRPSYEYYLRDISAMSW	inactive
GYGHVIYLYYCQRHDNPQVQ	inactive
MSEFSQCRFKSHTFFVTSNR	inactive
FMWCYMKYCAVHAFDLSWKV	inactive
QICHRGEGFWPINSSIRKVV	inactive
SCGTMTEIGVGRVLRFFVIL	inactive
SSWSSRATLMLSSEVKSDMV	inactive
IHYPKCVAGLCSRSLCTAVV	inactive
VFESCEYSRQVVGNFRDEM	inactive
YTCNST	inactive
IWWKNIGCAKYWVIPLRQWA	inactive
FFNRGKVAETGFIWSMVVV	inactive
QHAQGYLRGSTMYFEMM	0.357 ± 0.25
HIWTIRVMFWRELRLLITPI	inactive
RKDYGMLYFFLSSRKCTHAI	inactive
RSAPCC	inactive
SRFNMFNLS	0.163 ± 0.34
NMMFILGFFNNKY	2.38 ± 0.076
